B1: EPHA1: N414A (protein)
parent chain: MERRWPLGLGLVLLLCAPLPPGARAKEVTLMDTSKAQGELGWLLDPPKDGWSEQQQILNGTPLYMYQDCPMQGRRDTDHWLRSNWIYRGEEASRVHVELQFTVRDCKSFPGGAGPLGCKETFNLLYMESDQDVGIQLRRPLFQKVTTVAADQSFTIRDLVSGSVKLNVERCSLGRLTRRGLYLAFHNPGACVALVSVRVFYQRCPETLNGLAQFPDTLPGPAGLVEVAGTCLPHARASPRPSGAPRMHCSPDGEWLVPVGRCHCEPGYEEGGSGEACVACPSGSYRMDMDTPHCLTCPQQSTAESEGATICTCESGHYRAPGEGPQVACTGPPSAPRNLSFSASGTQLSLRWEPPADTGGRQDVRYSVRCSQCQGTAQDGGPCQPCGVGVHFSPGARGLTTPAVHVNGLEPYANYTFNVEAQNGVSGLGSSGHASTSVSISMGHAESLSGLSLRLVKKEPRQLELTWAGSRPRSPGANLTYELHVLNQDEERYQMVLEPRVLLTELQPDTTYIVRVRMLTPLGPGPFSPDHEFRTSPPVSRGLTGGEIVAVIFGLLLGAALLLGILVFRSRRAQRQRQQRQRDRATDVDREDKLWLKPYVDLQAYEDPAQGALDFTRELDPAWLMVDTVIGEGEFGEVYRGTLRLPSQDCKTVAIKTLKDTSPGGQWWNFLREATIMGQFSHPHILHLEGVVTKRKPIMIITEFMENGALDAFLREREDQLVPGQLVAMLQGIASGMNYLSNHNYVHRDLAARNILVNQNLCCKVSDFGLTRLLDDFDGTYETQGGKIPIRWTAPEAIAHRIFTTASDVWSFGIVMWEVLSFGDKPYGEMSNQEVMKSIEDGYRLPPPVDCPAPLYELMKNCWAYDRARRPHFQKLQAHLEQLLANPHSLRTIANFDPRMTLRLPSLSGSDGIPYRTVSEWLESIRMKRYILHFHSAGLDTMECVLELTAEDLTQMGITLPGHQKRILCSIQGFKD
B2: EPHA1: N414A-N478A (protein)
parent chain: B1 parent chain
B3: EPHA1: N478A (protein)
parent chain: B1 parent chain

Experiment: cell surface biotinylation, streptavidin pull-down, EPHA1 immunoblot
Settings: glycan lost; control: wild type

localisation_or_trafficking, decreases:
B1
B2
B3

— PMC11773478
